These are literature values, as cited in patent publication US20090011987A1, “Use of Glp-2 for the Treatment of Ischemia-Reperfusion Injury” (Novo Nordisk A/S, priority 2005, published 2009).

For this series the following is noted: adult human plasma.

For “GLP-2(1-33) [wild type human GLP-2(1-33)]”, the half-life entry was “lower than 2 hours”.
